The values below come from patent US9625458B2, “Biosensor” (priority 2002, dated 2017).

A short description of this assay: Fluorescence emission spectra without and with saturating ligand (wavelength shift, ΔIstd, ΔRmax). On the set-up: key to ΔIstd: intensity change at λstd normalized to average intensity; key to ΔRmax: ratio change of two emission band areas, unbound vs saturated. To be noted: unbound vs ligand-saturated; for ΔIstd: standard intensity change; for ΔRmax: standard ratiometric change. The procedure:
Fluorimetry. All measurements were conducted with an SLM Aminco-Bowman series 2 fluorimeter, with sample stirring at 25° C. Fluorescence emission spectra were acquired with excitation and emission slit widths of 4 and 8 nm, respectively. Photomultiplier tube potential was maintained between 400 and 800 volts. Protein concentrations were in the range of 50 to 1000 nM. Fluorophore-specific excitation was at the following approximate wavelengths: tryptophan, 290 nm; acrylodan, 390 nm; fluorescein, 485 nm; pyrene, 340 nm; NBD and NBDE, 490 nm; JPW4039, 485 nm; JPW4042, 470 nm; JPW4045, 470 nm.
Assessment of fluorescent biosensor function. Fluorescence emission spectra of bPBP-fluorophore conjugates were recorded in the absence and presence of saturating ligand concentrations. Spectral changes were characterized by four parameters: wavelength shift (the difference between the wavelengths of emission maximum in the unbound and ligand-saturated states), direction of intensity change (increase or decrease in intensity at the wavelengths of maximum emission in the two states), standard intensity change (ΔIstd), and standard ratiometric change (ΔR). ΔIstd is defined as the normalized intensity change relative to the average intensity, determined at the wavelength mid-point between the two emission maxima:
[formula] where λstd=(λmax, unbound+λmax, saturated)/2 and I1, I2 are the fluorescence intensities at λstd of each spectrum respectively (FIG. 4A). ΔR is defined in terms of two emission bands, A1 ([λ1, λ2]) and A2 ([λ3, λ4]) (FIG. 4B):
[formula] where ^∘A1, […] the areas in the absence of ligand, and ^∞A1, ^∞A2 the areas in the presence of saturating ligand. A computer program was used to enumerate ΔR for all possible pairs of wavelength bands in the two spectra, to identify the optimal sensing condition, defined as the maximum value of ΔR. Adjustable parameters of the algorithm, and their values used for ΔRmax quantities reported here, are: step size (2 nm), step width (10 nm), minimum integration area limit (fraction of total: 0.1), and maximum integration area limit (fraction of total: 1).

B1: phosphate BP A225C JPW4039 (conjugate, UniProt P0AG82 26-346, looked up, variant A225C)
Phosphate-binding protein PstS: EASLTGAGATFPAPVYAKWADTYQKETGNKVNYQGIGSSGGVKQIIANTVDFGASDAPLSDEKLAQEGLFQFPTVIGGVVLAVNIPGLKSGELVLDGKTLGDIYLGKIKKWDDEAIAKLNPGLKLPSQNIAVVRRADGSGTSFVFTSYLAKVNEEWKNNVGTGSTVKWPIGLGGKGNDGIAAFVQRLPGAIGYVEYAYAKQNNLAYTKLISADGKPVSPTEENFCNAAKGADWSKTFAQDLTNQKGEDAWPITSTTFILIHKDQKKPEQGTEVLKFFDWAYKTGAKQANDLDYASLPDSVVEQVRAAWKTNIKDSSGKPLY
modifications: JPW4039 label
B1: the ΔIstd was 0.36 and the ΔRmax worked out at 2.86.

B2: phosphate BP S39C JPW4042 (conjugate, UniProt P0AG82 26-346, looked up, variant S39C)
Phosphate-binding protein PstS: EASLTGAGATFPAPVYAKWADTYQKETGNKVNYQGIGSCGGVKQIIANTVDFGASDAPLSDEKLAQEGLFQFPTVIGGVVLAVNIPGLKSGELVLDGKTLGDIYLGKIKKWDDEAIAKLNPGLKLPSQNIAVVRRADGSGTSFVFTSYLAKVNEEWKNNVGTGSTVKWPIGLGGKGNDGIAAFVQRLPGAIGYVEYAYAKQNNLAYTKLISADGKPVSPTEENFANAAKGADWSKTFAQDLTNQKGEDAWPITSTTFILIHKDQKKPEQGTEVLKFFDWAYKTGAKQANDLDYASLPDSVVEQVRAAWKTNIKDSSGKPLY
modifications: JPW4042 dye label
As for B2, the ΔIstd turned out to be 0.01 and the ΔRmax is given as 0.15.

B3: phosphate BP N226C JPW4045 (conjugate, UniProt P0AG82 26-346, looked up, variant N226C)
Phosphate-binding protein PstS: EASLTGAGATFPAPVYAKWADTYQKETGNKVNYQGIGSSGGVKQIIANTVDFGASDAPLSDEKLAQEGLFQFPTVIGGVVLAVNIPGLKSGELVLDGKTLGDIYLGKIKKWDDEAIAKLNPGLKLPSQNIAVVRRADGSGTSFVFTSYLAKVNEEWKNNVGTGSTVKWPIGLGGKGNDGIAAFVQRLPGAIGYVEYAYAKQNNLAYTKLISADGKPVSPTEENFACAAKGADWSKTFAQDLTNQKGEDAWPITSTTFILIHKDQKKPEQGTEVLKFFDWAYKTGAKQANDLDYASLPDSVVEQVRAAWKTNIKDSSGKPLY
modifications: JPW4045 dye conjugate
Regarding B3, the ΔIstd is recorded as 0.53 and the ΔRmax is on record as 3.83.

B4: phosphate BP N226C JPW4039 (conjugate, UniProt P0AG82 26-346, looked up, variant N226C)
Phosphate-binding protein PstS: EASLTGAGATFPAPVYAKWADTYQKETGNKVNYQGIGSSGGVKQIIANTVDFGASDAPLSDEKLAQEGLFQFPTVIGGVVLAVNIPGLKSGELVLDGKTLGDIYLGKIKKWDDEAIAKLNPGLKLPSQNIAVVRRADGSGTSFVFTSYLAKVNEEWKNNVGTGSTVKWPIGLGGKGNDGIAAFVQRLPGAIGYVEYAYAKQNNLAYTKLISADGKPVSPTEENFACAAKGADWSKTFAQDLTNQKGEDAWPITSTTFILIHKDQKKPEQGTEVLKFFDWAYKTGAKQANDLDYASLPDSVVEQVRAAWKTNIKDSSGKPLY
modifications: JPW4039 dye conjugate
Regarding B4, the ΔIstd amounted to 0.26 and the ΔRmax worked out at 2.94.

B5: phosphate BP A225C JPW4045 (conjugate, UniProt P0AG82 26-346, looked up, variant A225C)
Phosphate-binding protein PstS: EASLTGAGATFPAPVYAKWADTYQKETGNKVNYQGIGSSGGVKQIIANTVDFGASDAPLSDEKLAQEGLFQFPTVIGGVVLAVNIPGLKSGELVLDGKTLGDIYLGKIKKWDDEAIAKLNPGLKLPSQNIAVVRRADGSGTSFVFTSYLAKVNEEWKNNVGTGSTVKWPIGLGGKGNDGIAAFVQRLPGAIGYVEYAYAKQNNLAYTKLISADGKPVSPTEENFCNAAKGADWSKTFAQDLTNQKGEDAWPITSTTFILIHKDQKKPEQGTEVLKFFDWAYKTGAKQANDLDYASLPDSVVEQVRAAWKTNIKDSSGKPLY
modifications: JPW4045 label
Consider B5, for which the ΔIstd amounted to 0.02 and the ΔRmax was 0.82.

B6: phosphate BP N223C Fluorescein (conjugate, UniProt P0AG82 26-346, looked up, variant N223C)
Phosphate-binding protein PstS: EASLTGAGATFPAPVYAKWADTYQKETGNKVNYQGIGSSGGVKQIIANTVDFGASDAPLSDEKLAQEGLFQFPTVIGGVVLAVNIPGLKSGELVLDGKTLGDIYLGKIKKWDDEAIAKLNPGLKLPSQNIAVVRRADGSGTSFVFTSYLAKVNEEWKNNVGTGSTVKWPIGLGGKGNDGIAAFVQRLPGAIGYVEYAYAKQNNLAYTKLISADGKPVSPTEECFANAAKGADWSKTFAQDLTNQKGEDAWPITSTTFILIHKDQKKPEQGTEVLKFFDWAYKTGAKQANDLDYASLPDSVVEQVRAAWKTNIKDSSGKPLY
modifications: fluorescein conjugate
As to B6, the ΔIstd came out at 0.06 and the ΔRmax was 0.01.

B7: phosphate BP N226C JPW4042 (conjugate, UniProt P0AG82 26-346, looked up, variant N226C)
Phosphate-binding protein PstS: EASLTGAGATFPAPVYAKWADTYQKETGNKVNYQGIGSSGGVKQIIANTVDFGASDAPLSDEKLAQEGLFQFPTVIGGVVLAVNIPGLKSGELVLDGKTLGDIYLGKIKKWDDEAIAKLNPGLKLPSQNIAVVRRADGSGTSFVFTSYLAKVNEEWKNNVGTGSTVKWPIGLGGKGNDGIAAFVQRLPGAIGYVEYAYAKQNNLAYTKLISADGKPVSPTEENFACAAKGADWSKTFAQDLTNQKGEDAWPITSTTFILIHKDQKKPEQGTEVLKFFDWAYKTGAKQANDLDYASLPDSVVEQVRAAWKTNIKDSSGKPLY
modifications: JPW4042 dye conjugate
With B7, the ΔIstd came out at 0.29 and the ΔRmax is recorded as 2.05.

B8: phosphate BP A225C JPW4042 (conjugate, UniProt P0AG82 26-346, looked up, variant A225C)
Phosphate-binding protein PstS: EASLTGAGATFPAPVYAKWADTYQKETGNKVNYQGIGSSGGVKQIIANTVDFGASDAPLSDEKLAQEGLFQFPTVIGGVVLAVNIPGLKSGELVLDGKTLGDIYLGKIKKWDDEAIAKLNPGLKLPSQNIAVVRRADGSGTSFVFTSYLAKVNEEWKNNVGTGSTVKWPIGLGGKGNDGIAAFVQRLPGAIGYVEYAYAKQNNLAYTKLISADGKPVSPTEENFCNAAKGADWSKTFAQDLTNQKGEDAWPITSTTFILIHKDQKKPEQGTEVLKFFDWAYKTGAKQANDLDYASLPDSVVEQVRAAWKTNIKDSSGKPLY
modifications: JPW4042 dye conjugate
As to B8, the ΔIstd is given as 0.30 and the ΔRmax stood at 1.32.

B9: phosphate BP A225C Fluorescein (conjugate, UniProt P0AG82 26-346, looked up, variant A225C)
Phosphate-binding protein PstS: EASLTGAGATFPAPVYAKWADTYQKETGNKVNYQGIGSSGGVKQIIANTVDFGASDAPLSDEKLAQEGLFQFPTVIGGVVLAVNIPGLKSGELVLDGKTLGDIYLGKIKKWDDEAIAKLNPGLKLPSQNIAVVRRADGSGTSFVFTSYLAKVNEEWKNNVGTGSTVKWPIGLGGKGNDGIAAFVQRLPGAIGYVEYAYAKQNNLAYTKLISADGKPVSPTEENFCNAAKGADWSKTFAQDLTNQKGEDAWPITSTTFILIHKDQKKPEQGTEVLKFFDWAYKTGAKQANDLDYASLPDSVVEQVRAAWKTNIKDSSGKPLY
modifications: fluorescein label
For the molecule B9, the ΔIstd was determined as 0.01 and the ΔRmax came out at 0.97.

B10: phosphate BP S39C JPW4039 (conjugate, UniProt P0AG82 26-346, looked up, variant S39C)
Phosphate-binding protein PstS: EASLTGAGATFPAPVYAKWADTYQKETGNKVNYQGIGSCGGVKQIIANTVDFGASDAPLSDEKLAQEGLFQFPTVIGGVVLAVNIPGLKSGELVLDGKTLGDIYLGKIKKWDDEAIAKLNPGLKLPSQNIAVVRRADGSGTSFVFTSYLAKVNEEWKNNVGTGSTVKWPIGLGGKGNDGIAAFVQRLPGAIGYVEYAYAKQNNLAYTKLISADGKPVSPTEENFANAAKGADWSKTFAQDLTNQKGEDAWPITSTTFILIHKDQKKPEQGTEVLKFFDWAYKTGAKQANDLDYASLPDSVVEQVRAAWKTNIKDSSGKPLY
modifications: JPW4039 dye conjugate
Regarding B10, the ΔIstd is reported as 0.36 and the ΔRmax came to 3.15.

B11: phosphate BP A225C NBD (conjugate, UniProt P0AG82 26-346, looked up, variant A225C)
Phosphate-binding protein PstS: EASLTGAGATFPAPVYAKWADTYQKETGNKVNYQGIGSSGGVKQIIANTVDFGASDAPLSDEKLAQEGLFQFPTVIGGVVLAVNIPGLKSGELVLDGKTLGDIYLGKIKKWDDEAIAKLNPGLKLPSQNIAVVRRADGSGTSFVFTSYLAKVNEEWKNNVGTGSTVKWPIGLGGKGNDGIAAFVQRLPGAIGYVEYAYAKQNNLAYTKLISADGKPVSPTEENFCNAAKGADWSKTFAQDLTNQKGEDAWPITSTTFILIHKDQKKPEQGTEVLKFFDWAYKTGAKQANDLDYASLPDSVVEQVRAAWKTNIKDSSGKPLY
modifications: NBD conjugate
On to B11, for which the ΔIstd was found to be 0.81 and the ΔRmax amounted to 1.21.

B12: phosphate BP A225C Acrylodan (conjugate, UniProt P0AG82 26-346, looked up, variant A225C)
Phosphate-binding protein PstS: EASLTGAGATFPAPVYAKWADTYQKETGNKVNYQGIGSSGGVKQIIANTVDFGASDAPLSDEKLAQEGLFQFPTVIGGVVLAVNIPGLKSGELVLDGKTLGDIYLGKIKKWDDEAIAKLNPGLKLPSQNIAVVRRADGSGTSFVFTSYLAKVNEEWKNNVGTGSTVKWPIGLGGKGNDGIAAFVQRLPGAIGYVEYAYAKQNNLAYTKLISADGKPVSPTEENFCNAAKGADWSKTFAQDLTNQKGEDAWPITSTTFILIHKDQKKPEQGTEVLKFFDWAYKTGAKQANDLDYASLPDSVVEQVRAAWKTNIKDSSGKPLY
modifications: acrylodan conjugate
Consider B12, for which the ΔIstd stood at 0.08 and the ΔRmax came to 1.95.
